Results as given in the Human Domainome abundance scans (Beltran et al. 2025).

B1: Ankyrin-3, residues 4094 to 4171; numbered along this chain, Q12955 (parent)
chain: MAIVADHLGLSWTELARELNFSVDEINQIRVENPNSLISQSFMLLKKWVTRDGKNATTDALTSVLTKINRIDIVTLLE

Variants of: B1
Assay: abundance fitness (aPCA) (normalised: wild type 0, dead -1); higher = more abundant; growth selection in yeast, the domain comes from the species named
Settings: Homo sapiens

Abundance fitness, by site and new letter:
Q40: K -0.35, A -0.064, V -0.894, D -0.726, G -0.74, N -1.03
A56: L -0.433, V -0.037, Y -0.353, M -0.526, T -0.517, C -0.271, H -0.296, I -0.298, W -0.458, F -0.304, G -0.613, R -0.506, S -0.517, K -0.175, N -0.53
T57: R -0.548, Y -0.14, L -0.798, Q -0.298, D -0.108, K -0.739, I -0.779, N 0.079, E -0.859, H -0.176, G -0.387, F -0.39, M -0.394, A -0.195, W -0.931, V -0.124, P -0.896, S -0.117
K47: T -0.149, M -0.005, Q -0.19, E -0.235, S -0.068, F -0.138, Y -0.39, N -0.033, D -0.177, H -0.11, V -0.487, W -0.124, C -0.369, P -0.956, G -0.31, L -0.099
D52: N -0.687, I -0.255, W -0.874, H -0.577, K -0.358, Y -0.717, S -0.589, L -0.89, T -0.607, G -0.625, C -0.549, V -0.575, A -0.274, Q -0.359, P -0.767, F -0.748, E -0.025
K46: M -0.204, H -0.195, V -0.373, I -0.581, S -0.024, W -0.541, G -0.337, T -0.061, C -0.432, N -0.044, Y -0.665, F -0.762, R -0.018, Q 0.124, P -0.915, E -0.013, L -0.377
L45: A -0.862, H -0.449, C -0.444, R -0.865, S -0.881, M -0.193, I -0.302, E -0.851, P -0.92, G -0.906, W -0.862, V -0.603, Q -0.833
W48: G -0.811, Q -0.808, H -0.752, V -0.887, T -0.876, S -0.928, M -0.635, R -1, P -0.923, C -0.868, I -0.83, L -0.715
K54: S 0.049, H 0.037, L -0.051, M -0.1, P -0.107, T -0.121, R -0.064, F -0.156, V 0.038, C -0.088, I 0.065, Q -0.054, E -0.132, N -0.316, D -0.233, A -0.019, W -0.21, Y -0.147
S39: P -0.685, F -0.434, D -0.013, W -0.47, N 0.142, A 0.05, R 0.001, E -0.103, T -0.016, K 0, V -0.209, C -0.011, H -0.084, Q 0.087, L -0.184, Y -0.616, M -0.071, G -0.048
N55: Q 0.011, R -0.073, S -0.021, M -0.047, T -0.115, A 0.007, G 0.057, L -0.004, F -0.15, D 0.066, C -0.157, V -0.114, H -0.058, Y -0.041, P -0.603, W -0.135, E -0.079
